Test results as given in the supplement of paper PMC9112550, “Optimization of the antimicrobial peptide Bac7 by deep mutational scanning” (BMC Biology, 2022).

System: Escherichia coli TOP10
Assay: shrunken log2 fold change of peptide-encoding DNA abundance (4.5 h post-induction vs induction); higher = less antimicrobial activity (less host growth inhibition)
Details: time post-induction: 4.5 h; library: site-saturation at positions 5, 18, 19, 20
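Further: peptides expressed intracellularly from a pBAD plasmid library in pooled LB shake-flask culture, induced with 0.3% L-arabinose, DNA abundance read by NGS, three biological replicates, DESeq2 with apeglm shrinkage.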

| Sequence | shrunken log2 fold change |
| --- | --- |
| RRIRSRPPRLPRPRPRPTVIPRP | -0.0891 |
| RRIRTRPPRLPRPRPRPASLPRP | 0.105 |
| RRIRNRPPRLPRPRPRPSNFPRP | -0.31 |
| RRIRERPPRLPRPRPRPSSIPRP | -0.855 |
| RRIRFRPPRLPRPRPRPDFNPRP | -0.637 |
| RRIRMRPPRLPRPRPRPKPLPRP | 0.603 |
| RRIRVRPPRLPRPRPRPWTAPRP | -0.12 |
| RRIRPRPPRLPRPRPRPLQEPRP | 0.18 |
| RRIRDRPPRLPRPRPRPVSRPRP | 0.218 |
| RRIRRRPPRLPRPRPRPAPNPRP | 0.976 |
| RRIRGRPPRLPRPRPRPTESPRP | 0.803 |
| RRIRPRPPRLPRPRPRPDAYPRP | -0.334 |
| RRIRARPPRLPRPRPRPRGTPRP | 0.448 |
| RRIRLRPPRLPRPRPRPPPTPRP | 1.48 |
| RRIRVRPPRLPRPRPRPNHDPRP | -0.369 |
| RRIRARPPRLPRPRPRPIEIPRP | 0.0613 |
| RRIRCRPPRLPRPRPRPSVFPRP | -0.614 |
| RRIRNRPPRLPRPRPRPEYPPRP | -0.243 |
| RRIRRRPPRLPRPRPRPNKMPRP | -0.0549 |
| RRIRVRPPRLPRPRPRPDAHPRP | 0.21 |
| RRIRKRPPRLPRPRPRPQLAPRP | 0.898 |
| RRIRNRPPRLPRPRPRPPFCPRP | 0.19 |
| RRIRIRPPRLPRPRPRPHDTPRP | -0.548 |
| RRIRGRPPRLPRPRPRPQANPRP | 0.111 |
| RRIRIRPPRLPRPRPRPHVLPRP | -0.198 |

| Sequence | shrunken log2 fold change |
| --- | --- |
| RRIRARPPRLPRPRPRPWVTPRP | -0.127 |
| RRIRSRPPRLPRPRPRPDNHPRP | -0.307 |
| RRIRCRPPRLPRPRPRPHNQPRP | -0.565 |
| RRIRHRPPRLPRPRPRPLTGPRP | -0.00273 |
| RRIRQRPPRLPRPRPRPIDLPRP | -0.194 |
| RRIRIRPPRLPRPRPRPAYVPRP | -0.354 |
| RRIRWRPPRLPRPRPRPFPHPRP | 0.29 |
| RRIRKRPPRLPRPRPRPGTDPRP | -0.165 |
| RRIRDRPPRLPRPRPRPVIDPRP | 0.35 |
| RRIRRRPPRLPRPRPRPFYLPRP | -0.226 |
| RRIRRRPPRLPRPRPRPIDFPRP | 0.137 |
| RRIRNRPPRLPRPRPRPYSEPRP | -2.12 |
| RRIRKRPPRLPRPRPRPNGRPRP | 0.131 |
| RRIRTRPPRLPRPRPRPKWLPRP | 0.247 |
| RRIRGRPPRLPRPRPRPGGCPRP | 1.19 |
| RRIRWRPPRLPRPRPRPLGNPRP | -0.14 |
| RRIRTRPPRLPRPRPRPESNPRP | -0.178 |
| RRIRGRPPRLPRPRPRPMIQPRP | 0.522 |
| RRIRIRPPRLPRPRPRPYCQPRP | -1.1 |
| RRIRGRPPRLPRPRPRPWCVPRP | 0.121 |
| RRIRIRPPRLPRPRPRPQNVPRP | -0.173 |
| RRIRERPPRLPRPRPRPFQRPRP | -0.0653 |
| RRIRGRPPRLPRPRPRPLIKPRP | 0.469 |
| RRIRQRPPRLPRPRPRPWNMPRP | -0.086 |
| RRIRPRPPRLPRPRPRPIVIPRP | -0.328 |

| Sequence | shrunken log2 fold change |
| --- | --- |
| RRIRRRPPRLPRPRPRPSFNPRP | -0.192 |
| RRIRQRPPRLPRPRPRPRNFPRP | -0.0725 |
| RRIRKRPPRLPRPRPRPVSVPRP | -0.0496 |
| RRIRQRPPRLPRPRPRPICQPRP | -0.153 |
| RRIRQRPPRLPRPRPRPDMEPRP | 0.104 |
| RRIRDRPPRLPRPRPRPTHVPRP | 0.244 |
| RRIRTRPPRLPRPRPRPFPFPRP | -0.406 |
| RRIRDRPPRLPRPRPRPTRLPRP | 0.491 |
| RRIRYRPPRLPRPRPRPFWAPRP | -0.306 |
| RRIRQRPPRLPRPRPRPVFQPRP | 0.0308 |
| RRIRNRPPRLPRPRPRPTDAPRP | -0.15 |
| RRIRQRPPRLPRPRPRPKNKPRP | -0.29 |
| RRIRHRPPRLPRPRPRPWHQPRP | -0.0658 |
| RRIRWRPPRLPRPRPRPVHKPRP | 0.0181 |
| RRIRARPPRLPRPRPRPAKFPRP | 0.168 |
| RRIRHRPPRLPRPRPRPCFIPRP | -0.385 |
| RRIRIRPPRLPRPRPRPEDKPRP | -0.401 |
| RRIRNRPPRLPRPRPRPLIPPRP | -0.208 |
| RRIRPRPPRLPRPRPRPRLGPRP | 0.586 |
| RRIRERPPRLPRPRPRPWHEPRP | -0.0932 |
| RRIRCRPPRLPRPRPRPQRIPRP | 0.0509 |
| RRIRQRPPRLPRPRPRPDMPPRP | -0.2 |
| RRIRQRPPRLPRPRPRPPYKPRP | -0.166 |
| RRIRGRPPRLPRPRPRPCPVPRP | 0.197 |
| RRIRLRPPRLPRPRPRPQNWPRP | 0.1 |

| Sequence | shrunken log2 fold change |
| --- | --- |
| RRIRCRPPRLPRPRPRPWPSPRP | -0.0603 |
| RRIRKRPPRLPRPRPRPNAVPRP | 0.385 |
| RRIRWRPPRLPRPRPRPIKHPRP | -0.2 |
| RRIRIRPPRLPRPRPRPQCLPRP | -0.47 |
| RRIRIRPPRLPRPRPRPPPGPRP | 0.685 |
| RRIRYRPPRLPRPRPRPGNLPRP | 0.0185 |
| RRIRWRPPRLPRPRPRPSNEPRP | 0.0555 |
| RRIRFRPPRLPRPRPRPSVHPRP | -0.233 |
| RRIRRRPPRLPRPRPRPCMSPRP | -0.00622 |
| RRIRTRPPRLPRPRPRPDNQPRP | -0.337 |
| RRIRSRPPRLPRPRPRPPNGPRP | 0.36 |
| RRIRERPPRLPRPRPRPPFAPRP | 0.403 |
| RRIRMRPPRLPRPRPRPVDLPRP | 0.405 |
| RRIRDRPPRLPRPRPRPPPDPRP | 1.14 |
| RRIRGRPPRLPRPRPRPAHNPRP | 0.157 |
| RRIRFRPPRLPRPRPRPYTNPRP | -1.17 |
| RRIRMRPPRLPRPRPRPWTTPRP | -0.0163 |
| RRIRHRPPRLPRPRPRPQDHPRP | -0.215 |
| RRIRERPPRLPRPRPRPRAMPRP | 0.0549 |
| RRIRGRPPRLPRPRPRPCWIPRP | -0.0658 |
| RRIRCRPPRLPRPRPRPGIQPRP | -0.248 |
| RRIRCRPPRLPRPRPRPRATPRP | 0.509 |
| RRIRPRPPRLPRPRPRPVHWPRP | 0.00332 |
| RRIRFRPPRLPRPRPRPFPLPRP | -0.289 |
| RRIRGRPPRLPRPRPRPMAHPRP | 0.63 |

| Sequence | shrunken log2 fold change |
| --- | --- |
| RRIRYRPPRLPRPRPRPNWAPRP | -0.267 |
| RRIRYRPPRLPRPRPRPQDTPRP | -0.547 |
| RRIRERPPRLPRPRPRPLDFPRP | -0.353 |
| RRIRPRPPRLPRPRPRPAEQPRP | 0.411 |
| RRIRCRPPRLPRPRPRPIQYPRP | -0.308 |
| RRIRYRPPRLPRPRPRPIPPPRP | -0.171 |
| RRIRKRPPRLPRPRPRPWITPRP | -0.105 |
| RRIRCRPPRLPRPRPRPGMSPRP | 0.0961 |
| RRIRNRPPRLPRPRPRPGDMPRP | -0.21 |
| RRIRYRPPRLPRPRPRPSDEPRP | -0.0199 |
| RRIRSRPPRLPRPRPRPDWSPRP | 0.276 |
| RRIRMRPPRLPRPRPRPGNIPRP | -0.115 |
| RRIRIRPPRLPRPRPRPQYTPRP | -1.18 |
| RRIRSRPPRLPRPRPRPDQKPRP | -0.00231 |
| RRIRCRPPRLPRPRPRPMCNPRP | -0.378 |
| RRIRMRPPRLPRPRPRPPWKPRP | 0.567 |
| RRIRDRPPRLPRPRPRPCACPRP | 0.112 |
| RRIRSRPPRLPRPRPRPQVFPRP | 0.0316 |
| RRIRNRPPRLPRPRPRPIPQPRP | -0.35 |
| RRIRDRPPRLPRPRPRPMHSPRP | 0.117 |
| RRIRWRPPRLPRPRPRPNLCPRP | 0.114 |
| RRIRMRPPRLPRPRPRPAAVPRP | 1.44 |
| RRIRRRPPRLPRPRPRPNIFPRP | -0.0516 |
| RRIRSRPPRLPRPRPRPEIFPRP | -0.432 |
| RRIRTRPPRLPRPRPRPPHGPRP | -0.228 |

| Sequence | shrunken log2 fold change |
| --- | --- |
| RRIRYRPPRLPRPRPRPKYGPRP | -0.176 |
| RRIRVRPPRLPRPRPRPWRCPRP | -0.0179 |
| RRIRNRPPRLPRPRPRPFCRPRP | -0.223 |
| RRIRGRPPRLPRPRPRPALAPRP | 1.17 |
| RRIRVRPPRLPRPRPRPQPWPRP | 0.152 |
| RRIRERPPRLPRPRPRPSFDPRP | -0.417 |
| RRIRQRPPRLPRPRPRPIKSPRP | -0.117 |
| RRIRDRPPRLPRPRPRPIEAPRP | 0.184 |
| RRIRVRPPRLPRPRPRPQHGPRP | 0.14 |
| RRIRMRPPRLPRPRPRPKSCPRP | 0.839 |
| RRIRRRPPRLPRPRPRPFPNPRP | 0.558 |
| RRIRIRPPRLPRPRPRPAFRPRP | 2.17 |
| RRIRQRPPRLPRPRPRPKYPPRP | 0.0386 |
| RRIRERPPRLPRPRPRPNEMPRP | 0.0665 |
| RRIRNRPPRLPRPRPRPYTVPRP | 0.0303 |
| RRIRMRPPRLPRPRPRPKNCPRP | 0.0597 |
| RRIRWRPPRLPRPRPRPYVVPRP | -0.256 |
| RRIRNRPPRLPRPRPRPWLYPRP | -0.00103 |
| RRIRWRPPRLPRPRPRPTYRPRP | 0.146 |
| RRIRGRPPRLPRPRPRPPARPRP | 1.2 |
| RRIRFRPPRLPRPRPRPDCFPRP | -0.00719 |
| RRIRHRPPRLPRPRPRPLIIPRP | -0.377 |
| RRIRYRPPRLPRPRPRPIKKPRP | 0.017 |
| RRIRLRPPRLPRPRPRPQPWPRP | 0.319 |
| RRIRMRPPRLPRPRPRPACCPRP | 0.646 |
